This note sets out measurements from patent publication US20110118131A1 (published 2011).

The target of this experiment is T1, IL-1β (UniProt P01584 117-269).
T1 construct: Antigen immobilised on the Biacore chip
The experiment can be described thus: Biacore, periplasmic extract.

B1: XPA23 light chain T52A (Fab, V domains shown)
VH: EVQLLESGGGLVQPGGSLRLSCAASGFTFSKYFMFWVRQAPGKGLEWVSVISPSGGMTRYADSVKGRFTISRDNSKNTLYLQMNSLRAEDTAVYYCARVGYGGNSDYWGQGTLVTVSS
VL: DIQMTQSPSSVSASVGDRLTIICRASQDINRWLAWYQQTPGNAPKLLIHSAASLQSGVPSRFSGSGSGTDFTLTINSLQPEDFATYYCQQADSFPLTFGGGTKVEIK
As to B1, the “fold difference in affinity vs original” value stood at 0.66 fold.

B2: XPA23 light chain T52E (Fab, V domains shown)
VH: EVQLLESGGGLVQPGGSLRLSCAASGFTFSKYFMFWVRQAPGKGLEWVSVISPSGGMTRYADSVKGRFTISRDNSKNTLYLQMNSLRAEDTAVYYCARVGYGGNSDYWGQGTLVTVSS
VL: DIQMTQSPSSVSASVGDRLTIICRASQDINRWLAWYQQTPGNAPKLLIHSAESLQSGVPSRFSGSGSGTDFTLTINSLQPEDFATYYCQQADSFPLTFGGGTKVEIK
Take B2: the “fold difference in affinity vs original” value worked out at 0.61 fold.

B3: XPA23 light chain T52F (Fab, V domains shown)
VH: EVQLLESGGGLVQPGGSLRLSCAASGFTFSKYFMFWVRQAPGKGLEWVSVISPSGGMTRYADSVKGRFTISRDNSKNTLYLQMNSLRAEDTAVYYCARVGYGGNSDYWGQGTLVTVSS
VL: DIQMTQSPSSVSASVGDRLTIICRASQDINRWLAWYQQTPGNAPKLLIHSAFSLQSGVPSRFSGSGSGTDFTLTINSLQPEDFATYYCQQADSFPLTFGGGTKVEIK
Consider B3, for which the “fold difference in affinity vs original” value stood at 1.05 fold.

B4: XPA23 light chain T52D (Fab, V domains shown)
VH: EVQLLESGGGLVQPGGSLRLSCAASGFTFSKYFMFWVRQAPGKGLEWVSVISPSGGMTRYADSVKGRFTISRDNSKNTLYLQMNSLRAEDTAVYYCARVGYGGNSDYWGQGTLVTVSS
VL: DIQMTQSPSSVSASVGDRLTIICRASQDINRWLAWYQQTPGNAPKLLIHSADSLQSGVPSRFSGSGSGTDFTLTINSLQPEDFATYYCQQADSFPLTFGGGTKVEIK
Turning to B4, the “fold difference in affinity vs original” value is 0.72 fold.

B5: XPA23 light chain T52G (Fab, V domains shown)
VH: EVQLLESGGGLVQPGGSLRLSCAASGFTFSKYFMFWVRQAPGKGLEWVSVISPSGGMTRYADSVKGRFTISRDNSKNTLYLQMNSLRAEDTAVYYCARVGYGGNSDYWGQGTLVTVSS
VL: DIQMTQSPSSVSASVGDRLTIICRASQDINRWLAWYQQTPGNAPKLLIHSAGSLQSGVPSRFSGSGSGTDFTLTINSLQPEDFATYYCQQADSFPLTFGGGTKVEIK
As to B5, the binding result is “no binding”.

B6: XPA23 light chain T52H (Fab, V domains shown)
VH: EVQLLESGGGLVQPGGSLRLSCAASGFTFSKYFMFWVRQAPGKGLEWVSVISPSGGMTRYADSVKGRFTISRDNSKNTLYLQMNSLRAEDTAVYYCARVGYGGNSDYWGQGTLVTVSS
VL: DIQMTQSPSSVSASVGDRLTIICRASQDINRWLAWYQQTPGNAPKLLIHSAHSLQSGVPSRFSGSGSGTDFTLTINSLQPEDFATYYCQQADSFPLTFGGGTKVEIK
B6: the “fold difference in affinity vs original” value turned out to be 0.91 fold.

B7: XPA23 light chain T52I (Fab, V domains shown)
VH: EVQLLESGGGLVQPGGSLRLSCAASGFTFSKYFMFWVRQAPGKGLEWVSVISPSGGMTRYADSVKGRFTISRDNSKNTLYLQMNSLRAEDTAVYYCARVGYGGNSDYWGQGTLVTVSS
VL: DIQMTQSPSSVSASVGDRLTIICRASQDINRWLAWYQQTPGNAPKLLIHSAISLQSGVPSRFSGSGSGTDFTLTINSLQPEDFATYYCQQADSFPLTFGGGTKVEIK
For B7, the “fold difference in affinity vs original” value was 0.8 fold.

B8: XPA23 light chain T52K (Fab, V domains shown)
VH: EVQLLESGGGLVQPGGSLRLSCAASGFTFSKYFMFWVRQAPGKGLEWVSVISPSGGMTRYADSVKGRFTISRDNSKNTLYLQMNSLRAEDTAVYYCARVGYGGNSDYWGQGTLVTVSS
VL: DIQMTQSPSSVSASVGDRLTIICRASQDINRWLAWYQQTPGNAPKLLIHSAKSLQSGVPSRFSGSGSGTDFTLTINSLQPEDFATYYCQQADSFPLTFGGGTKVEIK
As for B8, the “fold difference in affinity vs original” value worked out at 3.23 fold.
